6 substances from patent publication US20220056092A1 can be followed below.

This assay addresses IL12 receptor on bystander (GFP+) T cells (human) (UniProt P42701). Kind of assay: cell-based or functional assay.

IL12 receptor on bystander (GFP+) T cells (human), sequence (Q99665 24-862, chain 2 of 2, other chains not shown): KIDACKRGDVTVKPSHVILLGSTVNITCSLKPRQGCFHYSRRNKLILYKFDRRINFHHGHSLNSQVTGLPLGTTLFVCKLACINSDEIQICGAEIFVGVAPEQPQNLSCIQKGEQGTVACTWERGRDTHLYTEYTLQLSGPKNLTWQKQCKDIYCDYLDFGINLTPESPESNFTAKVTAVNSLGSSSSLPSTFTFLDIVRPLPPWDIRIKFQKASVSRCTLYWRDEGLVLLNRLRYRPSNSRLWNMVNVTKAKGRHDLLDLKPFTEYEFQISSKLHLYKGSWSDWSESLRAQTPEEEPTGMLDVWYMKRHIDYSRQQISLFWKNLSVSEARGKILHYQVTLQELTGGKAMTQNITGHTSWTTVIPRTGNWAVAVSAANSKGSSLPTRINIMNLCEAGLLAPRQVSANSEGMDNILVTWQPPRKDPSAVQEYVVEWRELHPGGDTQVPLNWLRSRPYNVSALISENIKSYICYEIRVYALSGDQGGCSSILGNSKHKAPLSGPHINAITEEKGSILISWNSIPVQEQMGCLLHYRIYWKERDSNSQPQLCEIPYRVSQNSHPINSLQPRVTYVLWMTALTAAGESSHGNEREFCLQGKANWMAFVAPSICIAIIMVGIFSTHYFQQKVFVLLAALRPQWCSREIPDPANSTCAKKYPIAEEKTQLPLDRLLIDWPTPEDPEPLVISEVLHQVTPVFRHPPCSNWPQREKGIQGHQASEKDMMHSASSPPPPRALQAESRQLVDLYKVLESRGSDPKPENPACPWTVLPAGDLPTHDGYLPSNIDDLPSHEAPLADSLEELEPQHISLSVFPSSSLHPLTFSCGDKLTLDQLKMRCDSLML
secreted IL12 encoded by OT-001356 (ORF2: p40 signal sequence; p40 (23-328 of WT); Linker ((G4S)3); p35 (57-253 of WT); BamHI (GS)) (ligand), sequence (chain): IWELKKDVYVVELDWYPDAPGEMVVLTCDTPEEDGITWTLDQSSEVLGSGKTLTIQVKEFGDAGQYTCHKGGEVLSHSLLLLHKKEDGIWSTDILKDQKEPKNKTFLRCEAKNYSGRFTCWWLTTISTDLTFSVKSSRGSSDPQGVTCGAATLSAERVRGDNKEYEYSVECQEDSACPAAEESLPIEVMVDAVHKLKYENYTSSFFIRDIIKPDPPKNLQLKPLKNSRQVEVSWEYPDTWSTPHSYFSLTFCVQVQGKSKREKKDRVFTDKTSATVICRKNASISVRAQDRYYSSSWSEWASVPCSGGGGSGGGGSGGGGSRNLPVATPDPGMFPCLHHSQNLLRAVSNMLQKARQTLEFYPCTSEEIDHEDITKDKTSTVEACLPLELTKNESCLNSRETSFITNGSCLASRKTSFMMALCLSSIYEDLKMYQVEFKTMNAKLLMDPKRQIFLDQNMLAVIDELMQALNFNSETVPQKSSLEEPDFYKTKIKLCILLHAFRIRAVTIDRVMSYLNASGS

Take “membrane bound IL12 encoded by OT-001895 (p40 (23-328 of WT); (G4S)3; p35 (57-253 of WT); (GS)15; CD8a Hinge and Transmembrane Domain; GS) (ligand)”: the Bystander effect (pSTAT4 geometric MFI on GFP+ T cells in 1 hour supernatants), ratio 1.1 (geometric MFI) is -136; the Bystander effect (pSTAT4 geometric MFI on GFP+ T cells in 1 hour supernatants), ratio 2.1 (geometric MFI) was -238; the Bystander effect (pSTAT4 geometric MFI on GFP+ T cells in 1 hour supernatants), ratio 4.3 (geometric MFI) was -277; the Bystander effect (pSTAT4 geometric MFI on GFP+ T cells in 1 hour supernatants), ratio 8.5 (geometric MFI) is -1180. In addition, the Bystander effect (pSTAT4 geometric MFI on GFP+ T cells in 1 hour supernatants), ratio 17.1 (geometric MFI) was -3000; the Bystander effect (pSTAT4 geometric MFI on GFP+ T cells in 1 hour supernatants), ratio 34.1 (geometric MFI) was -3720; the Transactivation (pSTAT4 geometric MFI on GFP+ cells in co-culture), ratio 1.1 (geometric MFI) worked out at 4500; the Transactivation (pSTAT4 geometric MFI on GFP+ cells in co-culture), ratio 2.1 (geometric MFI) turned out to be 6100. Also, the Transactivation (pSTAT4 geometric MFI on GFP+ cells in co-culture), ratio 4.3 (geometric MFI) was 7170; the Transactivation (pSTAT4 geometric MFI on GFP+ cells in co-culture), ratio 8.5 (geometric MFI) was found to be 8200; the Transactivation (pSTAT4 geometric MFI on GFP+ cells in co-culture), ratio 17.1 (geometric MFI) amounted to 7720; the Transactivation (pSTAT4 geometric MFI on GFP+ cells in co-culture); table head says ratio of 64, paragraph 725 gives 34.1 (geometric MFI) is 7700.
For the substance “membrane bound IL12 encoded by OT-002096 (B7.1 TM domain and IgG1 CH2-CH3 domain as a hinge domain) (ligand)”, the Bystander effect (pSTAT4 geometric MFI on GFP+ T cells in 1 hour supernatants), ratio 2.4 (geometric MFI) is 405; the Bystander effect (pSTAT4 geometric MFI on GFP+ T cells in 1 hour supernatants), ratio 4.8 (geometric MFI) turned out to be 1050; the Bystander effect (pSTAT4 geometric MFI on GFP+ T cells in 1 hour supernatants), ratio 9.7 (geometric MFI) was 1650; the Bystander effect (pSTAT4 geometric MFI on GFP+ T cells in 1 hour supernatants), ratio 19.4 (geometric MFI) was 1470. Also, the Bystander effect (pSTAT4 geometric MFI on GFP+ T cells in 1 hour supernatants), ratio 38.7 (geometric MFI) was 1470; the Bystander effect (pSTAT4 geometric MFI on GFP+ T cells in 1 hour supernatants), ratio 77.5 (geometric MFI) is 955; the Transactivation (pSTAT4 geometric MFI on GFP+ cells in co-culture), ratio 2.4 (geometric MFI) turned out to be 2620; the Transactivation (pSTAT4 geometric MFI on GFP+ cells in co-culture), ratio 4.8 (geometric MFI) came out at 3250. Also, the Transactivation (pSTAT4 geometric MFI on GFP+ cells in co-culture), ratio 9.7 (geometric MFI) worked out at 4030; the Transactivation (pSTAT4 geometric MFI on GFP+ cells in co-culture), ratio 19.4 (geometric MFI) came out at 4180; the Transactivation (pSTAT4 geometric MFI on GFP+ cells in co-culture), ratio 38.7 (geometric MFI) was 4860; the Transactivation (pSTAT4 geometric MFI on GFP+ cells in co-culture); table head says ratio of 64, paragraph 725 gives 77.5 (geometric MFI) worked out at 5220.
“membrane bound IL12 encoded by OT-002011 (B7.1 transmembrane domain and short CD8 hinge domain) (ligand)”: the Bystander effect (pSTAT4 geometric MFI on GFP+ T cells in 1 hour supernatants), ratio 2.4 (geometric MFI) is -642; the Bystander effect (pSTAT4 geometric MFI on GFP+ T cells in 1 hour supernatants), ratio 4.7 (geometric MFI) was -566; the Bystander effect (pSTAT4 geometric MFI on GFP+ T cells in 1 hour supernatants), ratio 9.5 (geometric MFI) is -1130; the Bystander effect (pSTAT4 geometric MFI on GFP+ T cells in 1 hour supernatants), ratio 18.9 (geometric MFI) is -1380. Also, the Bystander effect (pSTAT4 geometric MFI on GFP+ T cells in 1 hour supernatants), ratio 37.9 (geometric MFI) is -2880; the Bystander effect (pSTAT4 geometric MFI on GFP+ T cells in 1 hour supernatants), ratio 75.8 (geometric MFI) was -3530; the Transactivation (pSTAT4 geometric MFI on GFP+ cells in co-culture), ratio 2.4 (geometric MFI) was 5190; the Transactivation (pSTAT4 geometric MFI on GFP+ cells in co-culture), ratio 4.7 (geometric MFI) is 6680. Besides, the Transactivation (pSTAT4 geometric MFI on GFP+ cells in co-culture), ratio 9.5 (geometric MFI) stood at 7760; the Transactivation (pSTAT4 geometric MFI on GFP+ cells in co-culture), ratio 18.9 (geometric MFI) amounted to 8320; the Transactivation (pSTAT4 geometric MFI on GFP+ cells in co-culture), ratio 37.9 (geometric MFI) came out at 8030; the Transactivation (pSTAT4 geometric MFI on GFP+ cells in co-culture); table head says ratio of 64, paragraph 725 gives 75.8 (geometric MFI) worked out at 8090.
In the case of “membrane bound IL12 encoded by OT-002112 (B7.1 TM domain and FcgammaR2b (Fcgr2b) as a hinge domain) (ligand)”, the Bystander effect (pSTAT4 geometric MFI on GFP+ T cells in 1 hour supernatants), ratio 1.3 (geometric MFI) was -1; the Bystander effect (pSTAT4 geometric MFI on GFP+ T cells in 1 hour supernatants), ratio 2.5 (geometric MFI) is -818; the Bystander effect (pSTAT4 geometric MFI on GFP+ T cells in 1 hour supernatants), ratio 5 (geometric MFI) is -232; the Bystander effect (pSTAT4 geometric MFI on GFP+ T cells in 1 hour supernatants), ratio 10.1 (geometric MFI) is -988. The Bystander effect (pSTAT4 geometric MFI on GFP+ T cells in 1 hour supernatants), ratio 20.2 (geometric MFI) was -1400; the Bystander effect (pSTAT4 geometric MFI on GFP+ T cells in 1 hour supernatants), ratio 40.4 (geometric MFI) was -2660; the Transactivation (pSTAT4 geometric MFI on GFP+ cells in co-culture), ratio 1.3 (geometric MFI) amounted to 5110; the Transactivation (pSTAT4 geometric MFI on GFP+ cells in co-culture), ratio 2.5 (geometric MFI) was 6070. In addition, the Transactivation (pSTAT4 geometric MFI on GFP+ cells in co-culture), ratio 5 (geometric MFI) worked out at 7760; the Transactivation (pSTAT4 geometric MFI on GFP+ cells in co-culture), ratio 10.1 (geometric MFI) stood at 8120; the Transactivation (pSTAT4 geometric MFI on GFP+ cells in co-culture), ratio 20.2 (geometric MFI) turned out to be 8420; the Transactivation (pSTAT4 geometric MFI on GFP+ cells in co-culture); table head says ratio of 64, paragraph 725 gives 40.4 (geometric MFI) came to 8020.
As for “membrane bound IL12 encoded by OT-002111 (B7.1 TM domain and B7.1 C2 domain as a hinge domain) (ligand)”, the Bystander effect (pSTAT4 geometric MFI on GFP+ T cells in 1 hour supernatants), ratio 1.5 (geometric MFI) was -59; the Bystander effect (pSTAT4 geometric MFI on GFP+ T cells in 1 hour supernatants), ratio 2.9 (geometric MFI) is 852; the Bystander effect (pSTAT4 geometric MFI on GFP+ T cells in 1 hour supernatants), ratio 5.9 (geometric MFI) amounted to 437; the Bystander effect (pSTAT4 geometric MFI on GFP+ T cells in 1 hour supernatants), ratio 11.8 (geometric MFI) is -58. Besides, the Bystander effect (pSTAT4 geometric MFI on GFP+ T cells in 1 hour supernatants), ratio 23.6 (geometric MFI) was -1010; the Bystander effect (pSTAT4 geometric MFI on GFP+ T cells in 1 hour supernatants), ratio 47.1 (geometric MFI) is -4240; the Transactivation (pSTAT4 geometric MFI on GFP+ cells in co-culture), ratio 1.5 (geometric MFI) turned out to be 4660; the Transactivation (pSTAT4 geometric MFI on GFP+ cells in co-culture), ratio 2.9 (geometric MFI) is 6540. The Transactivation (pSTAT4 geometric MFI on GFP+ cells in co-culture), ratio 5.9 (geometric MFI) stood at 7210; the Transactivation (pSTAT4 geometric MFI on GFP+ cells in co-culture), ratio 11.8 (geometric MFI) worked out at 7660; the Transactivation (pSTAT4 geometric MFI on GFP+ cells in co-culture), ratio 23.6 (geometric MFI) was 7630; the Transactivation (pSTAT4 geometric MFI on GFP+ cells in co-culture); table head says ratio of 64, paragraph 725 gives 47.1 (geometric MFI) is 5460.
For the substance “secreted IL12 encoded by OT-001356 (ORF2: p40 signal sequence; p40 (23-328 of WT); Linker ((G4S)3); p35 (57-253 of WT); BamHI (GS)) (ligand)”, the Bystander effect (pSTAT4 geometric MFI on GFP+ T cells in 1 hour supernatants), CAR-IL12+:GFP+ ratio 73.9 (geometric MFI) was -2620; the Bystander effect (pSTAT4 geometric MFI on GFP+ T cells in 1 hour supernatants), ratio 2.3 (geometric MFI) was -1090; the Bystander effect (pSTAT4 geometric MFI on GFP+ T cells in 1 hour supernatants), ratio 4.6 (geometric MFI) was -518; the Bystander effect (pSTAT4 geometric MFI on GFP+ T cells in 1 hour supernatants), ratio 9.2 (geometric MFI) is -86. Besides, the Bystander effect (pSTAT4 geometric MFI on GFP+ T cells in 1 hour supernatants), ratio 18.5 (geometric MFI) is -226; the Bystander effect (pSTAT4 geometric MFI on GFP+ T cells in 1 hour supernatants), ratio 37 (geometric MFI) is -1400; the Transactivation (pSTAT4 geometric MFI on GFP+ cells in co-culture), ratio 2.3 (geometric MFI) turned out to be 2840; the Transactivation (pSTAT4 geometric MFI on GFP+ cells in co-culture), ratio 4.6 (geometric MFI) came to 4370. Besides, the Transactivation (pSTAT4 geometric MFI on GFP+ cells in co-culture), ratio 9.2 (geometric MFI) amounted to 5570; the Transactivation (pSTAT4 geometric MFI on GFP+ cells in co-culture), ratio 18.5 (geometric MFI) stood at 6420; the Transactivation (pSTAT4 geometric MFI on GFP+ cells in co-culture), ratio 37 (geometric MFI) stood at 6940; the Transactivation (pSTAT4 geometric MFI on GFP+ cells in co-culture); table head says CAR-IL12+:GFP+ ratio of 64, paragraph 725 gives 73.9 (geometric MFI) is 6450.
